Holding throughout (conditions): both partners purified
The target of assay [1] is T1, human OX40 extracellular domain (recombinant, C-terminal His tag) (Homo sapiens).
T1 construct: OX40 (TNFRSF4, CD134), human, extracellular domain (four cysteine-rich domains CRD1-4); The deposited entries 8AG1 and 7YK4 hold the construct; also called hOX40; TNFRSF4; source: HEK293F, transient expression, purified (HisTrap, Superdex 200 gel filtration)
T1 chain: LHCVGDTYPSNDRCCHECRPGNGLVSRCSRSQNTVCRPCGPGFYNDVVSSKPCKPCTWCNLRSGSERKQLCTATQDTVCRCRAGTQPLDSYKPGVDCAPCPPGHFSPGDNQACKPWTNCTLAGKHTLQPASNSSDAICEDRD
Nature of the assay: ELISA; human OX40 variants coated on a 96-well plate; serially diluted antibody added for 2 h at 37 °C; detected with goat (Fab')2 anti-human IgG Fc (HRP).

For assay [2], the target named is T1, human OX40 extracellular domain …. Nature of the assay: BLI; DF004 (10 μg/mL) loaded on protein A sensors; OX40 variants as two-fold serial dilutions in PBS with 1% BSA; association 120 s, dissociation up to 320 s; Octet K2. In general terms: In BLI a coated tip is dipped into the sample, and binding shifts an interference pattern.
The next assay has as its target T2, OX40-G70A (human, UniProt P43489, G70A).
T2 construct: OX40 (TNFRSF4), human, extracellular domain with G70A; Tag and host are told for recombinant OX40 in general, not for the variants by name; also called G70A variant of human OX40; source: HEK293F, transient expression, purified (told for recombinant human OX40 in general)
The assay is described as above.

B1: DF004 (full antibody, IgG1) (antibody, V domains shown)
VH: QVQLQQSGPGLVKPSQTLSLTCAISGDSVSSNSVSWDWIRQSPSRGLEWLGRTYYRSKWYNEYAVSVESRITINPDTSKNQFSLQLNSVTPEDTAIYFCVRNDYFFDLWGRGTLVTVSS
VL: EIVLTQSPATLSLSPGERATLSCRASQSVGSYLAWYQQKPGQAPRLLIYDASNRATGIPARFSGSGSGTDFTLTISSLEPEDFAVYYCQQRSNWPPGYTFGQGTKLEIK
notes: VH of DF004, as in the heavy chain (VH-CH1) of m3; IgG1 constant region; as the light chain (VL-CL) of m3; IgG1; scFv clone from a yeast display library made from PBMCs of healthy human donors, variable fragments grafted onto IgG1 Fc; source: HEK293F, transient expression, purified from the expression medium (protein A column)
Regarding B1, in assay [1], the EC50 was ~0.09 nM. Also, in assay [2], the Kd was found to be 4.39 nM. The “fold decrease of binding affinity against wild-type OX40 (kd value)” value in the assay with OX40-G70A was ~32 fold.

For orientation: EC50 means the concentration that produces a half-maximal response. By Kd is commonly meant the concentration at which binding is half-saturated.

The values are drawn from paper PMC9496217, “Structural Basis of a Novel Agonistic Anti-OX40 Antibody” (Biomolecules, 2022).
